In assay [1] the target is T1, rice cyclin-dependent kinase Cdc2-Os1 (rice, UniProt P29618 1-294).
T1 construct: The Gal4 parts are not written into the chain
The experiment in a line: yeast two-hybrid, Cdc2-Os1 in prey pADGal4 with empty pBDGal4. An excerpt:
(§1) The interactions of OsICK2 and OsICK4 with Cdc2-Os1 and CycD3-Os (the rice cyclin D3) were verified using a yeast two hybrid approach. In a preliminary step, yeast strain PJ69-4A (MATa trp1-901 leu2-3,112 ura3-52 his3-200 gal4(deleted) gal80(deleted) LYS2::GAL1-HIS3 GAL2-ADE2 met2::GAL7-lacZ) was transformed with Cdc2-Os1 in bait vector pBDGal4 (Stratagene), using the lithium acetate method, well known to those skilled in the art. The rice Cdc2-Os1 was previously obtained by PCR as described in Example 1. The Cdc2-Os1 was also cloned in the pADGal4 prey vector. The junctions between the pBDGal4 binding domain and the pADGal4 activation domain and the Cdc2-Os1 fragment were sequenced to verify correct in-frame fusion.
(§2) Two putative positive clones were identified. A second round of screening on these clones was performed. Pure positive plaques were isolated and phagemids were excised therefrom. Sequencing of the two clones reveiled that the clones were identical with a full length size of 1.7 kb. The clones contain an ORF of 1140 bp encoding a protein of 380 amino acids. This protein is designated cyclin D3 from rice (CycD3-Os). […]
(§3) As positive controls, growth was assessed in yeast containing the prey vector pADGal4 with Cdc2-Os1 and retransformed with the bait vector pBDGal4 containing OsICK2 or CycD3-Os. […]

The target in assay [2] is T2, full-length rice OsICK2 protein (Oryza sativa, UniProt A2X9W8 1-262).
T2 construct: The Gal4 parts are not written into the chain; Form 'mature' here means the full-length protein; also called Os2
T2 sequence: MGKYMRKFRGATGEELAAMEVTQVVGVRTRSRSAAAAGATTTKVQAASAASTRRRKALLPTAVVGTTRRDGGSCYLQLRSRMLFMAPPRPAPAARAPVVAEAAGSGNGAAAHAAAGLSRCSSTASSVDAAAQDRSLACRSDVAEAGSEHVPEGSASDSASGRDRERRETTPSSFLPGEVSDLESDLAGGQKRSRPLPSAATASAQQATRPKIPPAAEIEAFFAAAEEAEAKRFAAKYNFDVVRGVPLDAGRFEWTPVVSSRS
Description: yeast two-hybrid, OsICK2 in prey pADGal4 with empty pBDGal4.
Text: as §1, §2, §3

Assay [3] deals with T1, rice cyclin-dependent kinase Cdc2-Os1. The experiment in a line: yeast two-hybrid, Cdc2-Os1 in bait pBDGal4 with empty prey pADGal4.
Text: as §1, §2, §3

The target in assay [4] is T2, full-length rice OsICK2 protein. The experiment in a line: yeast two-hybrid, OsICK2 in bait pBDGal4 with empty prey pADGal4.
Text: as §1, §2, §3

T1 sequence (P29618 whole entry, the tested form may be a part): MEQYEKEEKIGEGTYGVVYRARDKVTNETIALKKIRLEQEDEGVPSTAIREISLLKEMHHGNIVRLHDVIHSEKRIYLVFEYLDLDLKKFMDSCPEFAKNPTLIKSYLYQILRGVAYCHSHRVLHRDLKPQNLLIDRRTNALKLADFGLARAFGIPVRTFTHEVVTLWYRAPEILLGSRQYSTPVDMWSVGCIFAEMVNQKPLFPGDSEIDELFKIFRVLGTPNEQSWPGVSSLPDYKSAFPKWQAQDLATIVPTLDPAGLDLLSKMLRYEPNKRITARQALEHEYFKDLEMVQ

B1: empty pBDGal4 vector (Gal4 binding domain alone) (other, UniProt P04386 1-148, looked up)
chain: MKLLSSIEQACDICRLKKLKCSKEKPKCAKCLKNNWECRYSPKTKRSPLTRAHLTEVESRLERLEQLFLLIFPREDLDMILKMDSLQDIKALLTGLFVQDNVNKDAVTDRLASVETDMPLTLRQHRISATSSSEESSNKGQRQLTVSI
notes: Negative control in the yeast two-hybrid assay
For the molecule B1, the binding result in assay [1] and in assay [2] was “no binding” each time.

B2: empty prey pADGal4 vector (Gal4 activation domain alone) (other, UniProt P04386 761-881, looked up)
chain: PSALFGGANFNQSGNIADSSLSFTFTNSSNGPNLITTQTNSQALSQPIASSNVHDNFMNNEITASKIDDGNNSKPLSPGWTDQTAYNAFGITTGMFNTTTMDDVYNYLFDDEDTPPNPKKE
notes: as for B1
For B2, the binding result in assay [3] and in assay [4] was “no binding” throughout.
